Test results: the DeepSol protein solubility set

Assay: soluble on expression in E. coli; label from the status in PepcDB or PDB records

Sequence | soluble on expression in E. coli
SIDEEMQVEAAKALREALQKYDRGRGKWHGTGKSIEPAKLGDEEVWRAELAATEVARDVDLGGRWHPAVVLGVGEQDLSVGVEDGPAKGRVPRSDIKWMKGSFKDNFKLGDVVLVRKADEDWSLRQVPEVQGGFMAMDVNTGRVLAMQGGFSYQDSVFNRATQALRQPGSSFKPFVYAAALDSGYSPATIVVDAPIEVNTPQGLWRPKNASNKFYGPTPLRTGIERSRNLMTIRLAQEVSMPVVAGYAERFGVYDHMGPFLANALGSEETTLYKMVAAYAMFANGGERVEPTLVDRIQDRFGKTIYRHDQRDCVDCLSDRLEPDQAPRIVTNRERVMNAITAYQLTSMMRGVVERGTASGTVKLPVPTAGKTGTTNDAKDVWFIGFTSNIVAGCYIGYDRPQPLGRGASGGGMCGPVFQSFMTEAVKKFGGGPF | not soluble
GPELYHYQECVRGTTVLLKEPCPSGTYEGNSPFHPLADNKFALTCTSTHFAFACADGTRHTYQLRARSVSPKLFIRQEEVQQELYSR | soluble
SLARKRRSTQRFSTTRKLKKERKIGTGKKEAEPLLPDLAEINAPDLMPTLVLNFDNVLASIAYDPVKGYIVRKRPGVDAFLSTLANFYELVLWSDHPFPFIEDLLRARLEWPISFTLYQENMDRRGSSRYRKIVQKGPFFKATRGVACSSGLSETAETLEEIFDNLERLGRRMDRVLYIDIDGSVLPSTQMRNFIKVTPFHGEAQEMLEDHALPELTDLLIGAAVSAGDVREMLLRYGGGADGNVGKR | soluble
MIIDDIINKIKSSNKIAISFHISPDGDSIGSSLGLLNGLRSIGKETYILSKEVVPESFEFLNFAREIDGNHFEVEDNTDLLITLDCGNIERLNFDTSDMISEDKKYTVINIDHHVTNDSFGDLNYINTKAASVGEIVYDLLSKMNISIDRTIAACLYTSILTDTGSFRFSNTTLNTHVVAGNLISTGLDFSEIHRKIFDNKKFEALKLQALVLNDMYLTFNNKLCVMKVTHDFIEKANAEDVDTGDLVSLGLKVNTAEVCMLLKEKDDCIKVSLRSKSYVDVRKIAEKFGGGGHIRAAGLSINSNILDAEKMILSEIQGELLEHHHHHH | not soluble
MGSDKIHHHHHHMFPPDKTLFLCLSALLLASCGTTSGKHRQPKPKQTVRQIQAVRISHIDRTQGSQELMLHSLGLIGTPYKWGGSSTATGFDCSGMIQFVYKNALNVKLPRTARDMAAASRKIPDSRLKAGDLVFFNTGGAHRYSHVGLYIGNGEFIHAPSSGKTIKTEKLSTPFYAKNYLGAHTFFTE | not soluble
MGSDKIHHHHHHMQLPNLQSATLLRRYKRFLADVELNNGEILTLHCANTGAMTGCGEKGDTVWFSTSDSKTRKYPHSWELTQLKNGQTVCINTHRSNQLTLEALQNKIITELAEYDEILPEVKYGVENSRIDFLLKGKNLPDCYVEVKSVTFVKNHLGLFPDAVTTRGQKHLRELIAMKKRGHRAVVFFAGLHDGFNRFTVAKSIDPDYAELLQQAVKEGVEVYSYAVKFDFSHQKPTALYLTNLVNYLE | not soluble
GSHMSQPRPLLSPPETEEQLLAQAQQLSGYTLGELAALVGLVTPENLKRDKGWIGVLLEIWLGASAGSKPEQDFAALGVELKTIPVDSLGRPLETTFVCVAPLTGNSGVTWETSHVRHKLKRVLWIPVEGERSIPLAQRRVGSPLLWSPNEEEDRQLREDWEELMDMIVLGQVERITARHGEYLQIRPKAANAKALTEAIGARGERILTLPRGFYLKKNFTSALLARHFLIQ | soluble
SPTVEACGYSDRIIQITRGDSTITSQDVANAIVAYGVWPHYLSSKDASAIDKPSQPDTSSNRFYTLRSVTWSSSSKGWWWKLPDALKDMGIFGENMFYHYLGRSGYTIHVQCNASKFHQGTLIVALIPEHQIASALHGNVNVGYNYTHPGETGREVKAETRLNPDLQPTEEYWLNFDGTLLGNITIFPHQFINLRSNNSATIIAPYVNAVPMDSMRSHNNWSLVIIPICPLETSSAINTIPITISISPMCAEFSGARAKRQ | soluble
MGSDKIHHHHHHMKNTPIERNVIDETINEFQIVDFSKATIREVKAIASKAEAVSGVEFIKMEMGVPGLPASAVGVKAEIEALQNGIASLYPDINGLPELKKEASDFIKAFINVDLSPEGCVPVTGSMQGTFASFLTCSQCDEKKDTILFIDPGFPVQKQQLVVMGQKYETFDVYDYRGDKLKEKLESYLRKGNISAIIYSNPNNPSWICLKDEELRIIGELATQYDVIVLEDLAYFAMDFRQDLSTPYQAPFQPSVAHYTDNYVLLISGSKAFSYAGQRIGVSCISDKLYHRSYPGLTKRYGGGTFGTVFIHRVLYALSSGTSHSAQYAMAAMLKAANEGQYNFLSEVKVYGDRAQKLKEIFLRHGFYLVYDNDLGDPIADGFYFTIGYPGMTSGELAKELMYYGVSAISLVTTGSHQEGLRACTSFIKDHQYAQLDERMKLFAEHHPIA | not soluble
METYAVFGNPIAHSKSPFIHQQFAQQLNIEHPYGRVLAPINDFINTLNAFFSAGGKGANVTVPFKEEAFARADELTERAALAGAVNTLMRLEDGRLLGDNTDGVGLLSDLERLSFIRPGLRILLIGAGGASRGVLLPLLSLDCAVTITNRTVSRAEELAKLFAHTGSIQALSMDELEGHEFDLIINATSSGISGDIPAIPSSLIHPGIYCYDMFYQKGKTPFLAWCEQRGSKRNADGLGMLVAQAAHAFLLWHGVLPDVEPVIKQLQEELSALEHHHHHH | soluble
KADNSSVEKLVVQVQQLDPVKGNKDVGTVEITESAYGLVFTPHLHGLAQGLHGFHIHQNPSCEPKEKDGKLVAGLGAGGHWDPKETKQHGYPWSDNAHLGDLPALFVEHDGSATNPVLAPRLKKLDEVKGHSLMIHEGGDNHSDHPAPLGGGGPRMACGVIK | soluble
SLREHLMSIEVANESGIDVSEAELVSVARFVIAKMDVNPCAELSMLLLDTAAMADLHMRWMDLPGPTDVMSFPMDELEPGGRPDAPEPGPSMLGDIVLCPEFAAEQAAAAGHSLGHELALLTIHGVLHLLGYDHAEPDEEKEMFALQDRLLEEWVADQVEAYQHDRQDEKDRRLLDKSRYFDL | not soluble
MRGSHHHHHHGSDLGKKLLEAARAGQDDEVRILIANGADVNAVDNTGLTPLHLAAVSGHLEIVEVLLKHGADVDAADVYGFTPLHLAAMTGHLEIVEVLLKYGADVNAFDMTGSTPLHLAADEGHLEIVEVLLKYGADVNAQDKFGKTAFDISIDNGNEDLAKSCRN | soluble
MSLSLVSQYIDLTEHFQNLIAVILKNPEKVWQMQLNYLEDALSLAQAQFNYWLEGKPLPINDQRFNGEDWINNPFFNLLSQHYLLANEHMNSLLENMEYGDENLAKRVRFFTRQYLDALSPANFIHTNPQLMAETLQSHGKNLLRGLHNLLSDVEAGSSRLIIKMTDTEAFKIGENLATTPGKVIFRNSMMELIQYCPRTTKAKSIPLLIVPPWINKYYILDLSPHNSLIRWLVEQGITVFIISWVNPDETYANKSFYDYLNEGPREAISVIQKQLRVKQVNTLGFCIGGTLLASLLAYNKATKDLSIRSATFLAAMIDFSDPGDIAVFIDEQQINKLEEEMKSKGYLAGKFMASSFNSLRANDLIWSFFIKNYLRGKSPVPFDILYWNADSTNMPATMHSQYLRWMYLHNNLIKPGKIRLNHIPVDVTNIDIPTFFLSTQKDHIAPWKTTYKGFELMKGPKRFVLGGSGHIAGIINPPTQQKYGYRTNNSMDLSAEQWFEKSKEHSGSWWPEWLNWLKLHSGRLINAPDINHLPFAPIMDAPGSYVLKKEGHHHHHH | soluble
MENKSPMKGSEAENAKDQLKKKTAEEFAQMAIINRAFSAESTEDPPPLAQKRSESTLKPLNDELKSVPLVRAFNSAENQLDPKNQNAAKK | not soluble
GMLELVGEYWEQLKITVVPVVAAAEDDDNEQHEEKAAEGEEKEEENGDEDEDEDEDEDDDDDDDEDEEEEEEVTDQLEDLREHFKNTEEGKALVHHYEECAERVKIQQQQPGYADLEHKEDCVEEFFHLQHYLDTATAPRLFDKLK | soluble
GMSDDLTDAQTAAIPEGFSQLNWSRGFGRQIGPLFEHREGPGQARLAFRVEEHHTNGLGNCHGGMLMSFADMAWGRIISLQKSYSWVTVRLMCDFLSGAKLGDWVEGEGELISEEDMLFTVRGRIWAGERTLITGTGVFKALSARKPRPGELAYKEEA | soluble
